From patent US20240343824A1 (MERUS N V, published 2024)
Blank lines part the entries; values can stand above or below the molecule they belong to.

What was measured:
[1] = target: human ZNRF3(ECD) on Freestyle 293F cells (human); assay: FACS on a mix of DiD-labelled ZNRF3 over-expressing and unlabelled parental 293F Freestyle cells, secondary reagents (anti-M13 and Strep-PE) only; Q3 0,120% [continued]
[2] = target: T1, full length human LGR5-FLAG-HA on Freestyle 293F or CHO-K1 cells (human, UniProt O75473 22-907); assay: competition FACS on CHO-K1 cells over-expressing human LGR5; competitor PG7711p02 (OMP88R20 copy) fixed at 50 ng/ml, detected with anti-human IgG PE; MFI normalised to no R-spondin1
T1 construct: also called hLGR5; hLGR5(FL)
T1 sequence: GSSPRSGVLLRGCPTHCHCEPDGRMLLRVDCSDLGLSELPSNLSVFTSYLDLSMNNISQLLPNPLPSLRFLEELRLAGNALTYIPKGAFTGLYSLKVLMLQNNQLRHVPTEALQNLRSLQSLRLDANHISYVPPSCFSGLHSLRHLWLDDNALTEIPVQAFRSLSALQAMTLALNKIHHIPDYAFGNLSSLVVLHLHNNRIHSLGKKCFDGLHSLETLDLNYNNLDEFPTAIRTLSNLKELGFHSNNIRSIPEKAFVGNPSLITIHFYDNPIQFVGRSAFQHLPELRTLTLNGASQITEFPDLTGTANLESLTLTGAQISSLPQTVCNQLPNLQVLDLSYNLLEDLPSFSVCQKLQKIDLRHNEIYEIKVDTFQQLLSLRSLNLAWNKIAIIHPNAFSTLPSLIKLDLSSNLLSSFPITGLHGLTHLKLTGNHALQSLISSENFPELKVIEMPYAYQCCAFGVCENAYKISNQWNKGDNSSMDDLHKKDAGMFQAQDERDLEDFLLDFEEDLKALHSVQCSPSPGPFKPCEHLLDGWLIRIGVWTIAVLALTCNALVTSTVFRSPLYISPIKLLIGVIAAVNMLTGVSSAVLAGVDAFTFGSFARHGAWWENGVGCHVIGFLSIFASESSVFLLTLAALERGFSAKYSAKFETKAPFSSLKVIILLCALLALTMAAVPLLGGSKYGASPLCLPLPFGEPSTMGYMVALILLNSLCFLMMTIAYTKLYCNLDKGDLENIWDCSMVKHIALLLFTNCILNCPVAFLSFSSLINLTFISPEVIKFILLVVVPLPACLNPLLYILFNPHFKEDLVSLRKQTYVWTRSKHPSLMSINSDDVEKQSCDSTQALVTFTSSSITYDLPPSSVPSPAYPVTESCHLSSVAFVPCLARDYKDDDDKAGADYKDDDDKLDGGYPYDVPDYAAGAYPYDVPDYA

[3] = target: T2, recombinant human LGR5-Fc (human, UniProt O75473 22-561); assay: R-Spondin3 blocking ELISA: 0,031 µg/ml rhLGR5-Fc on 2 µg/ml coated rhR-Spondin3, competitor 15 µg/ml soluble R-Spondin3, detection anti-Fc, OD450 normalised to maximum binding
T2 construct: extracellular domain; also called rhLGR5-Fc (RND systems Cat. Nr. 8078-GP); not shown: Fc part of the bought fusion protein
T2 sequence (looked up): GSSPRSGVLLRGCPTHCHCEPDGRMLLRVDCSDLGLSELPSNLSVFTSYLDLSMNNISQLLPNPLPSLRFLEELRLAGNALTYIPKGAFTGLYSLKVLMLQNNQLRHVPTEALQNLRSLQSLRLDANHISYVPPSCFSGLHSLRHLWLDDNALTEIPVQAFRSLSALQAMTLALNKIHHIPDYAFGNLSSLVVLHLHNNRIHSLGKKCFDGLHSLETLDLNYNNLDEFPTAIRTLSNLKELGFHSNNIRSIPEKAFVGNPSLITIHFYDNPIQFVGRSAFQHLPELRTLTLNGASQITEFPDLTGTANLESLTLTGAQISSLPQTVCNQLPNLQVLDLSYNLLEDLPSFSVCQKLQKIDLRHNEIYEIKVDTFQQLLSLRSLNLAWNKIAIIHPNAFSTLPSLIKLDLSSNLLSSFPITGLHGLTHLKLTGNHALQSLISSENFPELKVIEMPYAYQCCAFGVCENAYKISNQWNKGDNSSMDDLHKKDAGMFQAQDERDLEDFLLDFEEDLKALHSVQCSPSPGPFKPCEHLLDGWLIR

Sequence of human ZNRF3(ECD) on Freestyle 293F cells (human) (chain, as listed by the source): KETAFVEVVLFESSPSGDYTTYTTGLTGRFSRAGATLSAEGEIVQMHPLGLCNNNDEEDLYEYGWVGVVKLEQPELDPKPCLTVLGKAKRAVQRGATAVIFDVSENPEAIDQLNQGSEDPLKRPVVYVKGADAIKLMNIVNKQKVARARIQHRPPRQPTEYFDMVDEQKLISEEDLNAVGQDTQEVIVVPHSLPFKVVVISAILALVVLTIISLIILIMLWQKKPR

% of events in Q2 (DiD-positive and PE-positive) [1]: 0.18%
Molecule: -Control

IC50 (read off the curve) [2]: ~10 nM
B1: R-spondin1 (ligand, UniProt Q2MKA7 21-263, looked up)
chain: SRGIKGKRQRRISAEGSQACAKGCELCSEVNGCLKCSPKLFILLERNDIRQVGVCLPSCPPGYFDARNPDMNKCIKCKIEHCEACFSHNFCTKCKEGLYLHKGRCYPACPEGSSAANGTMECSSPAQCEMSEWSPWGPCSKKQQLCGFRRGSEERTRRVLHAPVGDHAACSDTKETRRCTVRRVPCPEGQKRRKGGQGRRENANRNLARKESKEAGAGSRRRKGQQQQQQQGTVGPLTSAGPA
notes: also called RSPO1; R-spondin1 (R&D Systems, cat. nr. 4645-RF/CF)

binding result [3]: binds
B2: recombinant human R-Spondin3 (ligand, UniProt Q9BXY4 22-272, looked up)
chain: QNASRGRRQRRMHPNVSQGCQGGCATCSDYNGCLSCKPRLFFALERIGMKQIGVCLSSCPSGYYGTRYPDINKCTKCKADCDTCFNKNFCTKCKSGFYLHLGKCLDNCPEGLEANNHTMECVSIVHCEVSEWNPWSPCTKKGKTCGFKRGTETRVREIIQHPSAKGNLCPPTNETRKCTVQRKKCQKGERGKKGRERKRKKPNKGESKEAIPDSKSLESSKEIPEQRENKQQQKKRKVQDKQKSVSVSTVH
notes: also called rhR-Spondin3; R-Spondin3 (RND systems)
